According to PMC9798254:

Tested on: N[C@H](COP(=O)(O)O)Cc1c[nH]cn1
Assay: purified protein
Conditions: 100 mM Tris/HCl pH 7.8, 5 mM MgCl2, 25°C

ecHisB‐N (Escherichia coli K-12)
Km: 48 ± 3 µM | kcat: 2.8 ± 0.1 s⁻¹ | kcat/Km: 58000 M⁻¹ s⁻¹
